The target in experiment [1] is T1, monomeric RC–His12–LH1–PufX core complex (reaction centre light-harvesting 1-PufX) (Rba. sphaeroides, UniProt P0C0Y7 1-260; P0C0Y8 2-282; P0C0Y9 2-308; P0C0X9 1-58; P0C0Y1 1-49; P13402 1-82). Briefly: single-molecule dynamic force spectroscopy (AFM); RC–LH1–PufX on the AFM tip via His12/Ni-NTA and a PEG12 linker, kept photo-oxidised by white light; pre-reduced cytochrome c2-His6 held on a Ni-NTA SiOx substrate via His6; 10 mM HEPES pH 7.4, 45 mM KCl, room temperature; retract velocity 200–3000 nm s^-1; the paper calls the values apparent. The conditions noted are these: both partners purified.

Experiment [2] deals with T1, monomeric RC–His12–LH1–PufX core …. The experiment can be described thus: PeakForce QNM single-molecule force spectroscopy (AFM); RC–LH1–PufX on the AFM tip, illuminated; pre-reduced cytochrome c2-His6 (and His6-CFP in patterned lines) held on a Ni-NTA SiOx substrate; 10 mM HEPES pH 7.4, 45 mM KCl, room temperature; modulation frequencies 0.5, 1 and 2 kHz. The conditions noted are these: both partners purified.

The source of these data is paper PMC6688529, “Dissecting the cytochrome c2–reaction centre interaction in bacterial photosynthesis using single molecule force spectroscopy” (Biochemical Journal, 2019).

B1: cytochrome c2-His6 (natural protein)
chain: QEGDPEAGAKAFNQCQTCHVIVDDSGTTIAGRNAKTGPNLYGVVGRTAGTQADFKGYGEGMKEAGAKGLAWDEEHFVQYVQDPTKFLKEYTGDAKAKGKMTFKLKKEADAHNIWAYLQQVAVRP
notes: cytochrome c2, cloned from Rba. sphaeroides strain 2.4.1; Carries a haem cofactor; pre-reduced with 1 mM sodium dithionite before the measurements; The gene was cloned with its own start; the signal peptide is surmised to be cut in Rba. sphaeroides; also called Cyt c2–His6; cyt c2; source: Rba. sphaeroides ΔcycA strain carrying the gene on pRK415, purified (LDAO-solubilised membrane fraction, …)
Consider B1, for which the koff in experiment [1] was 7.5 s⁻¹; in experiment [2], 198 s⁻¹.

By koff is commonly meant the first-order rate constant of dissociation.
